Source: US20120328616A1 (Amgen, published 2012)
Where a chain is given by its changes, count along the chain named.

T1: murine β-Klotho (murine, UniProt Q99N32 1-1043)
T1 construct: Full length (GenBank NP-112457), transiently expressed on HEK-293T cells; also called mu β-klotho; mouse β-Klotho
T1 sequence: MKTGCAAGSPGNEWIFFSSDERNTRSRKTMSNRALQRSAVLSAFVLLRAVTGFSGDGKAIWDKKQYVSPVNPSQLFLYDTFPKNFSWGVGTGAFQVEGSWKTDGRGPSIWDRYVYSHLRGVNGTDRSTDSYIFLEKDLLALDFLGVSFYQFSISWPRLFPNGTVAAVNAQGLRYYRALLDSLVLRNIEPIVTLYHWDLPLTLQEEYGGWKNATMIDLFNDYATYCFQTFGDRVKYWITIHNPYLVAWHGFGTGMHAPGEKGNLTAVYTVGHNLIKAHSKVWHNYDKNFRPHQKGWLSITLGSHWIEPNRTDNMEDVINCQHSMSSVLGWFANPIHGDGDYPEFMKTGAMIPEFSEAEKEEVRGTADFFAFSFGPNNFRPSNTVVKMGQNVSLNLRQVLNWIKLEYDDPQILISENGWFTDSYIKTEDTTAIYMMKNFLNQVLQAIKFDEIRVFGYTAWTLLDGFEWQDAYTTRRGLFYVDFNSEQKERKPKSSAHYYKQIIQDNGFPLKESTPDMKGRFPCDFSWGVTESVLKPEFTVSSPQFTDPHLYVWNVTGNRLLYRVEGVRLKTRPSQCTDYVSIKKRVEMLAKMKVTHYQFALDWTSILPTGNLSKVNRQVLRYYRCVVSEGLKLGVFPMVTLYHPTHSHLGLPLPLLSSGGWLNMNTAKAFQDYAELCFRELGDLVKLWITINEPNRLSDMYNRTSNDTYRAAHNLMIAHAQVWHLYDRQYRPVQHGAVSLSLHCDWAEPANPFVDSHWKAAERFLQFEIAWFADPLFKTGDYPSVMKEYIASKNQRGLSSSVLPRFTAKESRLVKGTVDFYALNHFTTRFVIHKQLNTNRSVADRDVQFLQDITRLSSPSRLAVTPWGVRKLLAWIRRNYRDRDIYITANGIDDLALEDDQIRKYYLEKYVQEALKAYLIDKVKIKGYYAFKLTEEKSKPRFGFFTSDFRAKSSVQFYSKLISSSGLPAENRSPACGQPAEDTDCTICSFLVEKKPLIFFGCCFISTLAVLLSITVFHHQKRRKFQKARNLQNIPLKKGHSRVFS

T2: huBeta_Klotho (1-301, 509-743, 967-1044) (muBeta KLOTHO 302-506, 742-964) (human; murine, UniProt Q86Z14 1-1044)
T2 construct: also called Chimera 14; Construct 14
T2 chain: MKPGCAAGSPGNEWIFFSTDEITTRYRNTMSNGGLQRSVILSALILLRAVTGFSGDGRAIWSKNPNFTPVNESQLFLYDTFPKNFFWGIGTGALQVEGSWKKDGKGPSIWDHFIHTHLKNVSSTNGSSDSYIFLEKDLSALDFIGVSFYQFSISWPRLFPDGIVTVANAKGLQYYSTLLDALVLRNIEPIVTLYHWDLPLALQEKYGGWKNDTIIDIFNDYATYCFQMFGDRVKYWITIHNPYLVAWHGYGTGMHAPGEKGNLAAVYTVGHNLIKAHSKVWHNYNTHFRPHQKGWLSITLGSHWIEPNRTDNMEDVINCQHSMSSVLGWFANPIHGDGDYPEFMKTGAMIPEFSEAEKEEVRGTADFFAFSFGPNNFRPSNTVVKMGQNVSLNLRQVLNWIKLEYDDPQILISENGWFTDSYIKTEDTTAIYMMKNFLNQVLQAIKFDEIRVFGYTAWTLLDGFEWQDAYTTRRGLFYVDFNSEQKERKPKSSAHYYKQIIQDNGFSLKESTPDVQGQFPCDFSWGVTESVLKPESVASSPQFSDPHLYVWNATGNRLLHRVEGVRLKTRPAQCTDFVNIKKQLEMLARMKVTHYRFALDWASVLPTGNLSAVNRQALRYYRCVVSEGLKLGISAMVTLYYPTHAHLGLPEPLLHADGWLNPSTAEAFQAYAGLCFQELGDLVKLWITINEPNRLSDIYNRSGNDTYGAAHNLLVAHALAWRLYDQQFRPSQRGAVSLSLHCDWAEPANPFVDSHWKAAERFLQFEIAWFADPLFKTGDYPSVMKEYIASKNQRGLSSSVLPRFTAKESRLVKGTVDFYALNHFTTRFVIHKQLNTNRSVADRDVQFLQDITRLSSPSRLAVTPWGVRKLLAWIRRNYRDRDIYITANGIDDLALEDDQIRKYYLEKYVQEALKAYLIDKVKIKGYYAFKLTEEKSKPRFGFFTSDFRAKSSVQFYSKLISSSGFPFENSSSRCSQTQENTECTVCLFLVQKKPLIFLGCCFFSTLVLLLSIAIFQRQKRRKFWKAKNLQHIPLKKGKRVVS

B1: 49G3.3 (antibody, V domains shown)
VH: QVTLKESGPVLVKPTETLTLTCTVSGFSLSNPRMGVSWIRQPPGKALEWLTHIFSNDEKSYSTSLKSRLTISKDTSKSQVVLSMTNMDPVDTATYYCVRVDTLNYHYYGMDVWGQGTTVTVSS
VL: DIQMTQSPSSLSASIGDRVTITCQASQGISNYLNWYQQKPGKAPKLLIYDASNLETGVPSRFSGSGSGTDFTFTISSLQPEDIATYYCHQYDDLPLTFGGGTKVEIRR
B2: 51E5.1 (antibody, V domains shown)
VH: QVQLQQWGAGLLKPSETLSLTCAVYGGSFSGYYWSWIRQPPGKGLEWIGELDHSGSINYNPSLKSRVTISVDTSKNQFSLKLTSVTAADTAVYYCARVLGSTLDYWGQGTLVTVSS
VL: DIQMTQSPSSLSASVGDRVTITCRASQDIRNDLGWYQQKPGKAPNRLIYAASSLQFGVPSRFSGSGSGTEFTLTISSLQPEDFATYYCLQHSSYPLTFGGGTRVEIKR
B3: 66G2.1 (antibody, V domains shown)
VH: QVQLVESGGGVVQPGRSLRLSCAASGFTFSSYGMHWVRQAPGKGLEWVAGISYDGSNKNYADSVKGRITISRDNPKNTLYLQMNSLRAEDTAVYYCATTVTKEDYYYYGMDVWGQGTTVTVSS
VL: B2 VL with D28G, N45K, S53N, F56S, E70K, S76N, H91L, S92N, S93G, R103K
B4: 67C10.1 (antibody, V domains shown)
VH: EVQLVQSGAEVKKPGESLKISCQGSGYSFSSYWIGWVRQMPGKGLEWMGIIYPGDSDTRYSPSFQGQVTISADKSINTAYLQWSSLKASDTAIYYCARRASRGYRYGLAFAIWGQGTMVTVSS
VL: DFVMTQTPLSLPVTPGEPASISCRSSQSLLNSDDGNTYLDWYLQKPGQSPQLLIYTLSYRASGVPDRFSGSGSGTDFTLKISRVEAEDVGVYYCMQRIEFPITFGQGTRLEIKR
B5: 65C3.1 (antibody, V domains shown)
VH: QVQLQESGPGLVKPSETLSLTCTVSGGSISSYYWSWIRQPPGKGLEWIGYIYYTGSTNYNPSLKSRVTISVDTSKNQFSLKLSSVTAADTAVYYCAREYYYGSGSYYPWGQGTLVTVSS
VL: EMVMTQSPATLSVSPGERATLSCRASQSVSSQLAWYQEKPGRAPRLLIYGASNRAIDIPARLSGSGSGTEFTLTISSLQSEDFAVYYCQQYNNWPWTFGQGTKVEFKR
B6: 67F5.1 (antibody, V domains shown)
VH: B5 VH with Q5K, T54S, S56N
VL: EIVMTQSPATLSVSPGERVTLSCRASQSVSSNLAWYQQKPGQAPRLLIHGSSNRAIGIPARFSGSGSGTEFTLTISSLQSADFAVYNCQQYEIWPWTFGQGTKVEIKR

target: T3, huBeta_Klotho (1-81, 194-1044) (muBeta KLOTHO 82P-193L) (human; murine, UniProt Q86Z14 1-1044); test: flow cytometry, transfected HEK-293T
T3 construct: also called Chimera 13; Construct 13

Binder | binding result
B1 | binds
B2 | binds
B3 | binds
B4 | binds
B5 | binds
B6 | binds

target: T4, huBeta_Klotho (1-507) (muBetaKLOTHO 506F-1045S) (human; murine, UniProt Q99N32 1-1043); test: flow cytometry, transfected HEK-293T
T4 construct: also called Chimera 2; Construct 2

Binder | binding result
B1 | binds
B2 | no binding
B3 | no binding
B4 | no binding
B5 | no binding
B6 | no binding

target: T1, murine β-Klotho; test: flow cytometry, transfected HEK-293T

Binder | binding result
B1 | no binding
B2 | no binding
B3 | no binding
B4 | no binding
B5 | no binding
B6 | no binding

target: T5, huBeta_Klotho (1-81, 303-1044) (muBetaKLOTHO 82P-302S) (human; murine, UniProt Q86Z14 1-1044); test: flow cytometry, transfected HEK-293T
T5 construct: also called Chimera 4; Construct 4

Binder | binding result
B1 | binds
B2 | binds
B3 | binds
B4 | binds
B5 | binds
B6 | binds

Target: T2, huBeta_Klotho (1-301, 509-743, …)
Test: flow cytometry, transfected HEK-293T

Binder | binding result
B1 | no binding
B2 | no binding
B3 | no binding
B4 | no binding
B5 | no binding
B6 | no binding

target: T6, huBeta_Klotho (82-1044) (muBeta KLOTHO 1-81F) (murine; human, UniProt Q86Z14 1-1044); test: flow cytometry, transfected HEK-293T
T6 construct: also called Chimera 12; Construct 12

Binder | binding result
B1 | no binding
B2 | binds
B3 | binds
B4 | binds
B5 | binds
B6 | binds

target: T7, huBeta_Klotho (1-736, 967-1044) (muBeta KLOTHO 735A-963S) (human; murine, UniProt Q86Z14 1-1044); test: flow cytometry, transfected HEK-293T
T7 construct: also called Chimera 11; Construct 11

Binder | binding result
B1 | binds
B2 | no binding
B3 | no binding
B4 | no binding
B5 | no binding
B6 | no binding

target: T8, huBeta_Klotho(1-301, 509-1044) (muBetaKLOTHO S302-F506) (human; murine, UniProt Q86Z14 1-1044); test: flow cytometry, transfected HEK-293T
T8 construct: also called Chimera 6; Construct 6

Binder | binding result
B1 | no binding
B2 | binds
B3 | binds
B4 | binds
B5 | binds
B6 | binds

target: T9, huBeta_Klotho (1-521, 738-1044) (muBeta KLOTHO 520P-735A) (human; murine, UniProt Q86Z14 1-1044); test: flow cytometry, transfected HEK-293T
T9 construct: also called Chimera 9; Construct 9

Binder | binding result
B1 | binds
B2 | no binding
B3 | no binding
B4 | no binding
B5 | binds
B6 | no binding
